The results in this text go back to publication PMC8034659.

Substitutions are numbered along the chain they refer to.

Experiment in all cases: SPR
(SPR reads the build-up and loss of mass on a sensor chip optically.)

The target of one data set is T1, TrfA T105E (plasmid RK2, UniProt P07676 98-382, T105E;G254D;S267L).
T1 sequence: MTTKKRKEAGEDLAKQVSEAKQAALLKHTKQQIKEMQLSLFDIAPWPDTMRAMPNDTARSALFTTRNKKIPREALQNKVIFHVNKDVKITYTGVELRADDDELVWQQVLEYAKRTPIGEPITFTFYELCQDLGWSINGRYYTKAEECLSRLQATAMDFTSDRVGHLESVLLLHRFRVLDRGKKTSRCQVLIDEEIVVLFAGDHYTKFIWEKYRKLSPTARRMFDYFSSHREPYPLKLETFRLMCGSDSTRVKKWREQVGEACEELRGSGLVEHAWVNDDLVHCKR

In another data set the target is T2, TrfA N234E (plasmid RK2, UniProt P07676 98-382, N234E;G254D;S267L).
T2 sequence: T1 sequence with E8T, N137E

For another data set, the target named is T3, TrfA P168E (plasmid RK2, UniProt P07676 98-382, P168E;G254D;S267L).
T3 sequence: T1 sequence with E8T, P71E

A further data set addresses T4, TrfA E361K (plasmid RK2, UniProt P07676 98-382, G254D;S267L;E361K).
T4 sequence: T1 sequence with E8T, E264K

Another data set concerns the target T5, TrfA R169E (plasmid RK2, UniProt P07676 98-382, R169E;G254D;S267L).
T5 sequence: T1 sequence with E8T, R72E

In the next data set the target is T6, TrfA R236E (plasmid RK2, UniProt P07676 98-382, R236E;G254D;S267L).
T6 sequence: T1 sequence with E8T, R139E

In another data set the target is T7, TrfA A171T (plasmid RK2, UniProt P07676 98-382, A171T;G254D;S267L).
T7 sequence: T1 sequence with E8T, A74T

B1: five RK2 iterons (ItT/ItB) (dsDNA)
DNA 1: CCTGCGGTATTGACACTTGAGGGGCGCGACTACTGACAGATGAGGGGCGCGATCCTTGACACTTGAGGGGCAGAGTGATGACAGATGAGGGGCGCACCTATTGACATTTGAGGGGCTGTCCACAGGCAG
DNA 2: CTGCCTGTGGACAGCCCCTCAAATGTCAATAGGTGCGCCCCTCATCTGTCATCACTCTGCCCCTCAAGTGTCAAGGATCGCGCCCCTCATCTGTCAGTAGTCGCGCCCCTCAAGTGTCAATACCGCAGG
Consider B1, for which the binding result is listed as “binds” in the data set with TrfA T105E; “no binding” in the data set with TrfA N234E; “binds” with TrfA P168E; “binds” with TrfA E361K; “no binding” with TrfA R169E; “no binding” with TrfA R236E. Also, in the data set with TrfA A171T, the binding result is “binds”.
